Numbering of substitutions follows the chain as printed. Numbers in names are those of the source.
B1: H6FXa-rhcmvIL-10 Arg-34Glu point mutant (R63E of SEQ ID NO:1) (ligand)
chain: PPHHHHHHSDIEGRAHDHEHKEVPPACDPVHGNLAGIFKELRATYASIEEGLQKKDTVYYTSLFNDRVLHEMLSPMGCRVTNELMEHYLDGVLPRASHLDYDNSTLNGLHVFASSMQALYQHMLKCPALACTGKTPAWMYFLEVEHKLNPWRGTAKAAAEADLLLNYLETFLLQF
notes: Tested as Drosophila cell supernatant; Its exact end in pAHF cannot be seen because the underlining is lost; also called R34E; Lys-34Glu
B2: H6FXa-rhcmvIL-10 Asp-144His point mutant (D176H of SEQ ID NO:1) (ligand)
chain: B1 chain with E49R, D162H
notes: Tested as Drosophila cell supernatant; also called D144H
B3: H6FXa-rhcmvIL-10 Gln-38Arg point mutant (Q67R of SEQ ID NO:1) (ligand)
chain: B1 chain with E49R, Q53R
notes: Tested as Drosophila cell supernatant; also called Q38R

Key:
[1] = target: T1, human IL-10R1 chain coupled to agarose beads (human, UniProt Q13651 22-235); assay: pull-down of 500 µL Drosophila medium with 15 µL HuIL-10R1-coupled agarose beads, Coomassie-stained SDS-PAGE
T1 construct: also called HuIL-10R1 coupled beads; human IL-10R1 beads
T1 sequence: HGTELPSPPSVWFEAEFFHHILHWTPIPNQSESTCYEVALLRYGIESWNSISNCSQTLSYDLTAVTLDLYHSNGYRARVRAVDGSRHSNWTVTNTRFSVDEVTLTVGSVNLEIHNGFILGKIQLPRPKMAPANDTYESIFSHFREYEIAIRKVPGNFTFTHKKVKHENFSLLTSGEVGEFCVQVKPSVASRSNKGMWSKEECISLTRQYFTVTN

[2] = target: T2, human IL-10R1 chain on transfected TF-1 cells (TF-1/HuIL-10R1) (human, UniProt Q13651 22-578); assay: cell-based or functional assay
T2 sequence: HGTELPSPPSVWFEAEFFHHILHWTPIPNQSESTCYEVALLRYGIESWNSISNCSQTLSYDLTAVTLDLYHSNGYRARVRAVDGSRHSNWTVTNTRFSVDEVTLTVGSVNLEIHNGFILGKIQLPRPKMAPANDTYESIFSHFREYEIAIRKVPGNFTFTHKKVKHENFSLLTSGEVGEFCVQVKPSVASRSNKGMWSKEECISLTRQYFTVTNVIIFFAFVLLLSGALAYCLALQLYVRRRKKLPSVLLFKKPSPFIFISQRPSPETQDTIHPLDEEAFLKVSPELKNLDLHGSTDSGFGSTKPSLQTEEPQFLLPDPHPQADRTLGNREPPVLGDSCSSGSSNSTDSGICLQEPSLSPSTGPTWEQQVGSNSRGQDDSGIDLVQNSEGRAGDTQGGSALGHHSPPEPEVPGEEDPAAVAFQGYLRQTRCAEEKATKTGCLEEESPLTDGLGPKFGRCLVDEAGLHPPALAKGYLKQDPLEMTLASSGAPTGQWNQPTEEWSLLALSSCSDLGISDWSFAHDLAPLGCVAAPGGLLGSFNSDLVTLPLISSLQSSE

Binder	binding result [1]	proliferation of TF-1/HuIL-10R1 cells [2]
B1	no binding	–
B2	no binding	~300 fold reduction in activity
B3	no binding	~100 fold reduction in activity

From patent US20140099299A1 (UAB RESEARCH FOUNDATION, published 2014)
